This is an account of results in patent US20200095569A1.

In assay [1] the target is NLS-iLID-GFP-ferritin (Gallus gallus; human) (UniProt P02794). Nature of the assay: cell-based or functional assay.
The target in assay [2] is NLS-iLID-iLID-GFP-ferritin (Gallus gallus; human) (UniProt P02794). In words: cell-based or functional assay.

Consider “FUS(1-214)-mCherry-sspB (from UniProt P0AFZ3 6-116)”, for which the mean mCherry intensity in locally activated droplets relative to nucleoplasm in assay [1] turned out to be 100 fold. Also, in assay [2], the mCherry fluorescence at core based droplets after light activation (live cell confocal imaging) is 15 s.
